In publication PMC3879576:

Key:
[1] = target: Bet v 1a Y5C mutant (birch) (UniProt P15494); experiment: SEC; Superdex 75 size exclusion chromatography (gel filtration) separating monomeric and dimeric forms
[2] = target: Bet v 1a Y5C mutant (birch) (UniProt P15494); experiment: not stated; analysis of purified Bet v 1a Y5C; method of the analysis not named; similar redox sensitivity as the dimer of the WT preparation
[3] = target: dimeric Bet v 1a purified from the WT Bet v 1a preparation, with cysteine incorporated at position 5 instead of the encoded tyrosine (birch) (UniProt P15494); experiment: SEC; Superdex 75 size exclusion chromatography (gel filtration) separating monomeric and dimeric forms

| Substance | stoichiometry N [1] | percent dimerization [2] [%] | stoichiometry N [3] |
| --- | --- | --- | --- |
| Bet v 1a Y5C mutant (from UniProt P15494 1-160) (natural protein) | 2 | 90 | – |
| dimeric Bet v 1a purified from the WT Bet v 1a preparation, with cysteine incorporated at position 5 instead of the encoded tyrosine (from UniProt P15494 1-160) (natural protein) | – | – | 2 |
